Experimental data published in the supplement of paper PMC6757056.
± gives the standard deviation of the averaged measurements.

B1: library; a variant is named by its letters at N, in order (parent)
chain: GCUGUCACCGGUGUAUUACCCUAGUGGUCGACCGGUCUGAUGAGUCUNNNNNNAGACGAAACAGC

Legend:
hypoxanthine [1] = variants of: B1; assay: FACS-Seq fitted mean relative fluorescence mCherry/BFP without ligand (log10 relative fluorescence); ligand: hypoxanthine (xanthine aptamer); higher = higher reporter protein expression; conditions: HEK293T, ligand present: no
In short: (§1)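 Sorting into 6 bins by mCherry/BFP followed 48 h of incubation with or without ligand. The cells were enriched HEK293T libraries lentivirally bearing an mCherry reporter with the ribozyme switch and an EF1α-BFP marker, and bin genomic DNA was PCR-amplified, barcoded and sequenced on MiSeq. Fluorescence is the fitted normal mean of the bin counts. Means were fitted on log10(mCherry/BFP), scaled to five spiked-in control ribozymes.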

hypoxanthine [2] = variants of: B1; assay: normalized RNA/DNA level with ligand (relative to sTRSVctl = 100) (log10 (% of sTRSVctl)); ligand: hypoxanthine (xanthine aptamer); higher = less ribozyme self-cleavage, higher mRNA level; conditions: ligand concentration (+) RNA-Seq: 5 mM, HEK293T, reporter: mCherry (pCS4076), ligand present: yes
In short: (§2)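 Total RNA, extracted with EDTA 72 h after HEK293T cells were transfected with 4 µg per 6-well well of reporter-linked ribozyme switch library plasmids, was reverse-transcribed, amplified, barcoded and sequenced. Ligand, if used, was added 1 h before transfection. RNA level was derived from RNA reads divided by DNA reads and normalized to a spiked-in non-cleaving sequence or to the top sequences. This was multiplied by 100 and log10-transformed, with the top set of 25 sequences and a ≥100 DNA read minimum.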

hypoxanthine [3] = variants of: B1; assay: normalized RNA/DNA level without ligand (relative to sTRSVctl = 100) (log10 (% of sTRSVctl)); ligand: hypoxanthine (xanthine aptamer); higher = less ribozyme self-cleavage, higher mRNA level; conditions: HEK293T, reporter: mCherry (pCS4076), ligand present: no
In short: as §2

hypoxanthine [4] = variants of: B1; assay: FACS-Seq fitted mean relative fluorescence mCherry/BFP with ligand (log10 relative fluorescence); ligand: hypoxanthine (xanthine aptamer); ligand concentration (+) FACS-Seq: 5 mM; higher = higher reporter protein expression; conditions: HEK293T, ligand present: yes
In short: as §1

| Variant | FACS-Seq fitted mean (log10) (hypoxanthine [1]) | normalized RNA/DNA level with ligand (log10) (hypoxanthine [2]) | normalized RNA/DNA level without ligand (log10) (hypoxanthine [3]) | FACS-Seq fitted mean (log10) (hypoxanthine [4]) |
| --- | --- | --- | --- | --- |
| GUGUAA | 0.291 ± 0.061 | 1.85 ± 0.024 | 1.67 ± 0.049 | 0.495 ± 0.043 |
| GUUAGG | 0.451 ± 0.026 | 1.8 ± 0.045 | 1.38 ± 0.033 | 0.648 ± 0.03 |
| GUUAGA | 0.572 ± 0.13 | 1.905 ± 0.0029 | 1.694 ± 0.0036 | 0.619 ± 0.075 |
| CUUAUA | 0.669 ± 0.043 | 1.92 ± 0.037 | 1.792 ± 0.014 | 0.696 ± 0.063 |
| CUGUCA | 0.49 ± 0.048 | 2 ± 0.058 | 1.86 ± 0.037 | 0.439 ± 0.09 |
| AUGGCG | 0.211 ± 0.015 | 1.894 ± 0.018 | 1.38 ± 0.075 | 0.691 ± 0.042 |
| CUGAAG | 0.454 ± 0.056 | 1.92 ± 0.045 | 1.59 ± 0.032 | 0.669 ± 0.026 |
| CUGAAA | 0.56 ± 0.015 | 1.93 ± 0.027 | 1.74 ± 0.018 | 0.587 ± 0.036 |
| UUCUCG | 0.24 ± 0.0079 | 2.01 ± 0.034 | 1.854 ± 0.0077 | 0.362 ± 0.0084 |
| GUCUAG | 0.584 ± 0.051 | 1.87 ± 0.053 | 1.53 ± 0.044 | 0.604 ± 0.11 |
| GUCUAA | 0.326 ± 0.054 | 1.94 ± 0.048 | 1.801 ± 0.0053 | 0.458 ± 0.0071 |
| UUUAGG | 0.0978 ± 0.0074 | 1.9004 ± 0.0014 | 1.83 ± 0.0068 | 0.462 ± 0.026 |
| UUUAGC | 0.28 ± 0.015 | 1.95 ± 0.061 | 1.88 ± 0.037 | 0.555 ± 0.04 |
| UUUAGU | 0.632 ± 0.16 | 1.93 ± 0.043 | 1.83 ± 0.064 | 0.638 ± 0.11 |
| AUGGAA | 0.751 ± 0.027 | 1.88 ± 0.044 | 1.65 ± 0.043 | 0.749 ± 0.042 |
| AUGGAG | 0.0698 ± 0.0056 | 1.71 ± 0.037 | 1.208 ± 0.011 | 0.604 ± 0.023 |
| AUGGAC | 0.677 ± 0.01 | 1.8884 ± 0.00037 | 1.68 ± 0.028 | 0.843 ± 0.058 |
| UUGCGG | -0.08 ± 0.07 | 1.99 ± 0.062 | 1.91 ± 0.044 | -0.606 ± 0.083 |
